Reference: PMC10936184

Target: MipA-His6 (Pseudomonas aeruginosa)
Assay: nano-DSF; isothermal analysis with FoldAffinity: MipA-His6 (5 µM) incubated for 2 h at room temperature with PMB or PME from 76 nM up to 2.5 mM; one site model; fits at 51°C, 52°C and 53°C

Row | Substance | Kd
1 | polymyxin B (peptide) | 8.4 to 10 µM
2 | polymyxin E (peptide) | 2.8 to 3.4 µM
